For one molecule, EC50 results are on record in publication PMC6269442, “High resolution X-ray and NMR structural study of human T-cell immunoglobulin and mucin domain containing protein-3” (Scientific Reports, 2018).

For the experiment, the target named is T1, tagless human TIM-3 IgV domain (human, UniProt Q8TDQ0 24-130).
T1 construct: N-terminal methionine added before Val24; T-cell immunoglobulin and mucin domain containing protein-3 (TIM-3, HAVCR2), human, IgV domain, Val24 thru Lys130; the same tagless protein was used for crystallization and ELISA; also called tagless hTIM-3 IgV domain; hTIM-3 IgV domain
The experiment can be described thus: ELISA; tagless hTIM-3 IgV (50 μl of 250 nM) coated on the plate; GST tagged hCEACAM1 IgV (0–15 μM) or GST control in Dulbeccos PBS; detected with goat polyclonal anti-GST-HRP. Conditions: both partners purified. For orientation: An ELISA detects its analyte on a solid surface through an enzyme-linked reagent.

T1 sequence (Q8TDQ0 other isoform, or with tags, fused parts or gaps): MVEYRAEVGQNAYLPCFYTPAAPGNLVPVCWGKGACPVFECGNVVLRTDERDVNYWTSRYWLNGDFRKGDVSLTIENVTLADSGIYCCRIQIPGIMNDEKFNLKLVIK

B1: glutathione-S-transferase (GST) tagged hCEACAM1 IgV-domain protein (domain or fragment, human, UniProt P13688 35-142, looked up)
chain: QLTTESMPFNVAEGKEVLLLVHNLPQQLFGYSWYKGERVDGNRQIVGYAIGTQQATPGPANSGRETIYPNASLLIQNVTQNDTGFYTLQVIKSDLVNEEATGQFHVYP
notes: carcinoembryonic antigen cell adhesion molecule 1 (CEACAM1), human, IgV (N-terminal) domain; Detected by an anti-GST-HRP antibody; also called GST-hCEACAM1 IgV fusion protein
As for B1, a half-maximal response (EC50) required 3.13 µM.

Usually EC50 stands for the concentration at which the effect is half-maximal. Lower therefore signals an effect from little substance.
